The values below are quoted from earlier work in article PMC4632993.

For this series, the target named is ubiquitin (Homo sapiens) (UniProt P0CG47).

Chain of MDA-9/Syntenin (O00560 2-298): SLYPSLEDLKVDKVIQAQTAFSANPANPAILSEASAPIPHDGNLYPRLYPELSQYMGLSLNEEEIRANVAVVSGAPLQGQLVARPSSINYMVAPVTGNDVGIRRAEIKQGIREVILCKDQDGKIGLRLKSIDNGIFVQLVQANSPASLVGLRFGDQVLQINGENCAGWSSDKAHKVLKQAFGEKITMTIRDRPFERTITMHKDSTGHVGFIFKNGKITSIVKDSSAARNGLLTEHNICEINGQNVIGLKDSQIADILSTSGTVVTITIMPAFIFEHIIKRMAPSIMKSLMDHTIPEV

In the case of MDA-9/Syntenin (from UniProt O00560), the Kd – broadly, the concentration at which binding is half-saturated – was 27.3 µM.
